Measured values published in publication PMC4024478 (Protein expression and purification, 2014).

Assays:
Assay in all cases: pull-down
[1] = molecular target: PDZ2 domain of PSD-95 (Mus musculus, UniProt Q62108 155-249)
[2] = molecular target: PDZ2 Domain-HaloTag fusion protein (PSD-95 PDZ2) on HaloLink resin (Mus musculus, UniProt Q62108 155-249)
[3] = molecular target: MBP fusion protein containing an N-terminal PDZ2 Tag (Mus musculus, UniProt Q62108 155-249)
[4] = molecular target: MBP-GST fusion protein containing an internal PDZ2 Domain Tag (Mus musculus, UniProt Q62108 155-249)
[5] = molecular target: HaloTag-PDZ1+PDZ2 fusion protein (PSD-95 PDZ1-2) on HaloLink resin (Mus musculus, UniProt Q62108 61-249)
[6] = molecular target: MBP fusion protein containing a C-terminal PDZ2 Tag (Mus musculus, UniProt Q62108 155-249)
[7] = molecular target: PDZ3 Domain-HaloTag fusion protein (PSD-95 PDZ3) on HaloLink resin (Mus musculus, UniProt Q62108 302-402)

Measured: binding result

PDZ3 Domain-HaloTag fusion protein (PSD-95 PDZ3) on HaloLink resin, sequence (Q62108 302-402): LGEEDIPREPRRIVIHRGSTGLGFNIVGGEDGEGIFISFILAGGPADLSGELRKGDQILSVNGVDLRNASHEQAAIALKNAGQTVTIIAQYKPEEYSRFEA
PDZ2 Domain-HaloTag fusion protein (PSD-95 PDZ2) on HaloLink resin, sequence (Q62108 155-249): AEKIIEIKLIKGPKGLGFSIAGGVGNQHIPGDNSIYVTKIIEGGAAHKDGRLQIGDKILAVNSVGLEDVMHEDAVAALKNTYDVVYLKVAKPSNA
MBP-GST fusion protein containing an internal PDZ2 Domain Tag, sequence (Q62108 155-249): as above
MBP fusion protein containing an N-terminal PDZ2 Tag, sequence (Q62108 155-249): as above
PDZ2 domain of PSD-95, sequence (Q62108 155-249): as above
MBP fusion protein containing a C-terminal PDZ2 Tag, sequence (Q62108 155-249): as above
HaloTag-PDZ1+PDZ2 fusion protein (PSD-95 PDZ1-2) on HaloLink resin, sequence (Q62108 61-249): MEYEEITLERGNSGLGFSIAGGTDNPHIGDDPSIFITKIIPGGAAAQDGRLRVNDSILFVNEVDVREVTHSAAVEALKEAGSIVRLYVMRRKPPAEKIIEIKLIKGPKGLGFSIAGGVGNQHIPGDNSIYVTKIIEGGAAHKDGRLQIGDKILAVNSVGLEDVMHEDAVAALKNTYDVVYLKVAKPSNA

SIESDV [SIESDV peptide (free GluN2B Peptide Ligand)]
binds: [1] | [2] | [3] | [4] | [5] | [6]

YKQTSV [YKQTSV peptide]
binds: [7]
